{"source": "patent US20210063414A1", "about": "“METHODS FOR PREVENTING AND/OR TREATING BONE LOSS CONDITIONS BY MODULATING IRISIN” (Dana-Farber Cancer Institute, Inc., priority 2018, published 2021)", "assay_in_all_cases": "Crosslinking/co-immunoprecipitation/mass spectrometry (TMT quantitative proteomics) to identify irisin receptors", "format_in_all_cases": "binding", "key": {"[1]": {"molecular_target": "T1, MLO-Y4 cell surface proteins (Mus musculus, UniProt Q921N7)", "T1 construct": "endogenous in cells; host or cells: MLO-Y4", "T1 sequence (Q921N7 78-253)": "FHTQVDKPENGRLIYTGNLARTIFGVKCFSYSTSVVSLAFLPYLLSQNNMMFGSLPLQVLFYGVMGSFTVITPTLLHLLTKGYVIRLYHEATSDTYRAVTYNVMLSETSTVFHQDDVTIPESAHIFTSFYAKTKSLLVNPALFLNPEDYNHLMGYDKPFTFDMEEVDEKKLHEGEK", "details": "co-precipitated protein Tmem70 (TMM70_MOUSE)", "summary_of_the_method": "(§1)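 Mouse MLO-Y4 cells were switched to serum-free FreeStyle medium for 4 h, chilled, then exposed to 10 nM His-tagged irisin (or adipsin as control) for 20 min. Cells were crosslinked with 1.5 mM DTSSP (30 min, ice), and bound proteins were pulled down on Ni-NTA and eluted with 250 mM imidazole. Eluates were separated by SDS-PAGE, trypsin-digested in gel, TMT 6-plex labelled and quantified by MS3-based LC-MS/MS on an Orbitrap Fusion Lumos.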"}, "[2]": {"molecular_target": "T2, MLO-Y4 cell surface proteins (Mus musculus, UniProt Q9JHS4)", "T2 construct": "endogenous in cells; host or cells: MLO-Y4", "T2 sequence (Q9JHS4 57-634)": "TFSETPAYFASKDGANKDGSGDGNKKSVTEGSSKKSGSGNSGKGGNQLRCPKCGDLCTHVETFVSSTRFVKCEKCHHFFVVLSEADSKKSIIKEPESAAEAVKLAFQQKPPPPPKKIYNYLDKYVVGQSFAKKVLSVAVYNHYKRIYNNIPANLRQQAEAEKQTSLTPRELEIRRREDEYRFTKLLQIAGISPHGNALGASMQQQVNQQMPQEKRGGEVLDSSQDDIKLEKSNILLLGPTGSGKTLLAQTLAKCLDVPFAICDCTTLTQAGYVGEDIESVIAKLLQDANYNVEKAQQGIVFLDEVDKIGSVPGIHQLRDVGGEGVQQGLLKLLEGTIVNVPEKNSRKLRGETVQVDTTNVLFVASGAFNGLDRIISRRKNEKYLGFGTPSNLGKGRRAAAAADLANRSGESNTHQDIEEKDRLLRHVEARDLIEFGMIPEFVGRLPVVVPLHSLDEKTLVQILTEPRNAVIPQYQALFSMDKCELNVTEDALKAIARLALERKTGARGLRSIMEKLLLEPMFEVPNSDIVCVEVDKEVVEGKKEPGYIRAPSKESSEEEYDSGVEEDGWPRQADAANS", "details": "co-precipitated protein Clpx (CLPX_MOUSE)", "summary_of_the_method": "as §1"}, "[3]": {"molecular_target": "T3, MLO-Y4 cell surface proteins (Mus musculus, UniProt P59999)", "T3 construct": "endogenous in cells; host or cells: MLO-Y4", "details": "co-precipitated protein Atpc4 (ARPC4_MOUSE)", "summary_of_the_method": "as §1"}, "[4]": {"molecular_target": "T4, MLO-Y4 cell surface proteins (Mus musculus, UniProt Q9WTP6)", "T4 construct": "endogenous in cells; host or cells: MLO-Y4", "details": "co-precipitated protein Ak2 (KAD2_MOUSE)", "summary_of_the_method": "as §1"}, "[5]": {"molecular_target": "T5, MLO-Y4 cell surface proteins (Mus musculus, UniProt O35143)", "T5 construct": "endogenous in cells; host or cells: MLO-Y4", "T5 sequence (O35143 26-106)": "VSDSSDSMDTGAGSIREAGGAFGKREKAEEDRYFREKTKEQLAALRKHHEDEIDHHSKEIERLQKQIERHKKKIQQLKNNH", "details": "co-precipitated protein Atpif1 (ATIF1_MOUSE)", "summary_of_the_method": "as §1"}, "[6]": {"molecular_target": "T6, MLO-Y4 cell surface proteins (Mus musculus, UniProt P62960)", "T6 construct": "endogenous in cells; host or cells: MLO-Y4", "T6 sequence (P62960 whole entry)": "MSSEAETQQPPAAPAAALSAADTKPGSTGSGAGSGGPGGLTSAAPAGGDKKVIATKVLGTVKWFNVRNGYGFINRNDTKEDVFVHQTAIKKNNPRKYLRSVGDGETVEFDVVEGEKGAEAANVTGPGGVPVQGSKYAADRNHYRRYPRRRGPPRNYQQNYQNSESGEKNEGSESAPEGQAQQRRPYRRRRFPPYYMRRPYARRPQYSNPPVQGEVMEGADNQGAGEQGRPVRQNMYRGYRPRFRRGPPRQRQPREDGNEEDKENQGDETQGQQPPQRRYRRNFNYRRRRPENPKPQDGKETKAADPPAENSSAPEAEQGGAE", "details": "co-precipitated protein Ybx1 (YBOX1_MOUSE)", "summary_of_the_method": "as §1"}, "[7]": {"molecular_target": "T7, MLO-Y4 cell surface proteins (Mus musculus, UniProt Q9Z2I9)", "T7 construct": "endogenous in cells; host or cells: MLO-Y4", "T7 sequence (Q9Z2I9 54-463)": "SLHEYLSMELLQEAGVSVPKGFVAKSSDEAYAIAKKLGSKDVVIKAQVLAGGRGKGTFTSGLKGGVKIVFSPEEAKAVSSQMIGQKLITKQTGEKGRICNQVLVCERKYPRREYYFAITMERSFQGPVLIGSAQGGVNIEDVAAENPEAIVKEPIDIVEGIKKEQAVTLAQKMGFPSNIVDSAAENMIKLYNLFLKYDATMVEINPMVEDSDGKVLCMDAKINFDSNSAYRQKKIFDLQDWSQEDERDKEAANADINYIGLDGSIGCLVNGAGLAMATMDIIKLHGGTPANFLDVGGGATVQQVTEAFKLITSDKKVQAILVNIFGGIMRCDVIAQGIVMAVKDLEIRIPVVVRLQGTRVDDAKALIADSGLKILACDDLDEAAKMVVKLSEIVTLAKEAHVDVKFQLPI", "details": "co-precipitated protein Sucla2 (SUCB1_MOUSE)", "summary_of_the_method": "as §1"}}}
{"substance": "adipsin", "values": [{"measurement": "TMT signal-to-noise ratio", "setting": "[1]", "value": 88.4078}, {"measurement": "TMT signal-to-noise ratio", "setting": "[2]", "value": 1517.78}, {"measurement": "TMT signal-to-noise ratio", "setting": "[3]", "value": 138.296}, {"measurement": "TMT signal-to-noise ratio", "setting": "[4]", "value": 113.461}, {"measurement": "TMT signal-to-noise ratio", "setting": "[5]", "value": 454.155}, {"measurement": "TMT signal-to-noise ratio", "setting": "[6]", "value": 219.172}, {"measurement": "TMT signal-to-noise ratio", "setting": "[7]", "value": 50.8753}]}
